The source of these data is publication PMC10469627, “Molecular basis of the glycosomal targeting of PEX11 and its mislocalization to mitochondrion in trypanosomes” (Frontiers in Cell and Developmental Biology, 2023).

The test deals with T1, GST-HsPEX19 (human, UniProt P40855 1-299).
T1 construct: human PEX19, expressed from pGEX4T1-HsPEX19; also called GST-tagged recombinant human PEX19; recombinant human GST-PEX19; source: E. coli BL21 (DE3), purified (Glutathione Agarose 4B)
T1 sequence (looked up): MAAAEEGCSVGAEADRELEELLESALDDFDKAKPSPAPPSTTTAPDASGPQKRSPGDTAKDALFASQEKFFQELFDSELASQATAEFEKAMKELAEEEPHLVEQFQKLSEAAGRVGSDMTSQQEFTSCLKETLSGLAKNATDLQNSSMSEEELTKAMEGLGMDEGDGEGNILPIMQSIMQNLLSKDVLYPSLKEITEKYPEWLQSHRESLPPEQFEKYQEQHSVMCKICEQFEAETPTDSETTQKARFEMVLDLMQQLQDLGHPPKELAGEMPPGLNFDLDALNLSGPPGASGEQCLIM
Briefly: peptide or protein array; 15-mer peptides (2 aa shift) on a cellulose membrane; probed with 1 µM GST fusion or GST in TBS + 3% BSA + 0.05% Tween-20, 1 h at 4°C; detected with anti-GST antibody and chemiluminescence; at least three consecutive spots counted as a potential site. The settings on record: both partners purified.

B1: TbPEX11 array peptides of BS3 (aa 139-159) (peptide)
peptide: VLDVVALYGALQKRASDPATS
notes: PEX11 of Trypanosoma brucei, residues 139-159 (BS3); on the array this stretch stood as consecutive overlapping 15-mers (2 aa shift), each on its own spot; source: synthetic peptides, synthesized on a cellulose membrane
On to B1, for which the binding result is “binds”.

B2: TbPEX11 array peptides of BS1 (aa 13-35) (peptide)
peptide: QTDGRDKILKAFSGVFKALGSLD
notes: PEX11 of Trypanosoma brucei, residues 13-35 (BS1); on the array this stretch stood as consecutive overlapping 15-mers (2 aa shift), each on its own spot; source: synthetic peptides, synthesized on a cellulose membrane
As for B2, the binding result is given as “binds”.

B3: TbPEX11 array peptides of BS2 (aa 77-99) (peptide)
peptide: CRAKGKVNMKEVLKFLRVLCNFL
notes: PEX11 of Trypanosoma brucei, residues 77-99 (BS2); on the array this stretch stood as consecutive overlapping 15-mers (2 aa shift), each on its own spot; source: synthetic peptides, synthesized on a cellulose membrane
B3: the binding result is given as “binds”.
